Measured values published in patent US20190048062A1 (BRACCO SUISSE, published 2019).

Experiments:
Assay in all cases: flow chamber, microvesicles on selectin-Fc coating
[1] = target: T1, human Fc P selectin (R&D catalog number 137-PS 50) (human, UniProt P16109 42-771)
T1 construct: Bought; coated in the flow chamber at 4 µg/mL; also called Human P selectin; human P-selectin; Fc part of the bought chimera not given
T1 sequence (looked up): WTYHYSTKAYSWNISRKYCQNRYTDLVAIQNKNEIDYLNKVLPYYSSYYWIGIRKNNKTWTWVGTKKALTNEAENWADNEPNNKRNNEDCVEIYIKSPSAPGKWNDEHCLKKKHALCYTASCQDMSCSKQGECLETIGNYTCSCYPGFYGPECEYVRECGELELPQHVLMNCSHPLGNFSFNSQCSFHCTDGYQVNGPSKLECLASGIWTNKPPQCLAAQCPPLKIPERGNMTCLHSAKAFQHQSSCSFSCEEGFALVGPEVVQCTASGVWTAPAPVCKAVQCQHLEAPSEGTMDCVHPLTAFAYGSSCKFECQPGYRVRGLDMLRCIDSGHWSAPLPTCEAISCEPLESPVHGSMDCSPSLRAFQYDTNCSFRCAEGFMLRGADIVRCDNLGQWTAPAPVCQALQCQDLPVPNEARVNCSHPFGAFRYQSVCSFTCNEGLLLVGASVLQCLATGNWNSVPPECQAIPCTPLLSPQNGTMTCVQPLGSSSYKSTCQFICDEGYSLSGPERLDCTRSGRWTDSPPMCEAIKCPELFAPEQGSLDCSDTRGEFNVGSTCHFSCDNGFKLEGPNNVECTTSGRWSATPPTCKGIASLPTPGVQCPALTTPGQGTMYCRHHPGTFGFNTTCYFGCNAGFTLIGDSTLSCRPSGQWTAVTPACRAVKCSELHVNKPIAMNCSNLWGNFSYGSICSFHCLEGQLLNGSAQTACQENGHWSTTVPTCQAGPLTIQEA
Description: (§1) To test the effective binding, targeted microvesicles prepared as described in WO2012/020030 (Example 6) and those prepared according to the present invention (example 8) were injected in a flow chamber set up comprising a coating of mouse Fc P-Selectin (catalog number 737-PS, R&D Systems, Minneapolis, Minn., USA) or human Fc P and E selectins (R&D catalog numbers 137-PS 50 and 724 ES 100) at 4 μg/mL. Microvesicles (at equivalent number of 80×10⁶/400 μL TBS++) were injected through the flow chamber (FCS2, Bioptech, USA) in a bolus fashion and their adhesion onto the mouse P-selectin (or human P- or E-selectin) coating layer assessed over a period of 10 min at a flow rate of 1.0 mL/min (shear rate of 714 s⁻¹) in the presence of 50% (v:v) human plasma (Stehelin & Cie A G) in TBS. A quantitative analysis of microvesicles accumulation was performed by counting the number of microvesicles adhering in the observed area at 2 min intervals over the total 10 min infusion, using the image processing program Analysis FIVE (SIS, Germany). After 10 min, five pictures were taken randomly and the number of bound microvesicles was measured and expressed as the number of bound bubbles (NBB) at 10 min. Each observed area was 183×137 μm, as measured with the aid of a stage micrometer. Measurement was performed between the middle and the exit of the chamber.
(§2) Similarly, suspensions of targeted microvesicles prepared according to example 8 (Variant 1A as targeting ligand) was injected in a flow chamber as described above, and their binding activity determined according to the above procedure.

[2] = target: T2, mouse Fc P-Selectin (catalog number 737-PS, R&D Systems) (mouse, UniProt Q01102 42-709)
T2 construct: Bought; coated in the flow chamber at 4 µg/mL; also called Mouse P selectin; mouse P-selectin; Fc part of the bought chimera not given
T2 sequence (looked up): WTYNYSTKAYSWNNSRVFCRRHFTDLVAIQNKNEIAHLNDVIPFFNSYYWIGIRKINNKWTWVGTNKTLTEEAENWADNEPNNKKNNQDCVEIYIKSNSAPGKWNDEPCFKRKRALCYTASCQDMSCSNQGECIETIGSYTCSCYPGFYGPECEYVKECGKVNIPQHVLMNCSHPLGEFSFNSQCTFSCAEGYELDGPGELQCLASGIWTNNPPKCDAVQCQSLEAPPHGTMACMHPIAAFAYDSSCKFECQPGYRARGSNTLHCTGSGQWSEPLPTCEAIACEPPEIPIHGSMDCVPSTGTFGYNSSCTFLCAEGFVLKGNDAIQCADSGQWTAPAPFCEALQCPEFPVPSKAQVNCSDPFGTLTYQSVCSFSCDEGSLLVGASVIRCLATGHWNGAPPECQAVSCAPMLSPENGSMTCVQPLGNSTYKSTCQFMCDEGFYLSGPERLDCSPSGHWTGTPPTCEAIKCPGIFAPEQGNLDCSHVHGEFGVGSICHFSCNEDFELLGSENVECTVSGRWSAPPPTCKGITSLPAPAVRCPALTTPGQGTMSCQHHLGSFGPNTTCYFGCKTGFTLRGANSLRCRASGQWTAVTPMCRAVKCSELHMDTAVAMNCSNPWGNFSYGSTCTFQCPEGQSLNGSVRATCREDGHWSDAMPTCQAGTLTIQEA
Description: as §1, §2

[3] = target: T3, human Fc E selectin (R&D catalog number 724 ES 100) (human, UniProt P16581 22-556)
T3 construct: Bought; coated in the flow chamber at 4 µg/mL; also called Human E selectin; human E-selectin; Fc part of the bought chimera not given
T3 sequence (looked up): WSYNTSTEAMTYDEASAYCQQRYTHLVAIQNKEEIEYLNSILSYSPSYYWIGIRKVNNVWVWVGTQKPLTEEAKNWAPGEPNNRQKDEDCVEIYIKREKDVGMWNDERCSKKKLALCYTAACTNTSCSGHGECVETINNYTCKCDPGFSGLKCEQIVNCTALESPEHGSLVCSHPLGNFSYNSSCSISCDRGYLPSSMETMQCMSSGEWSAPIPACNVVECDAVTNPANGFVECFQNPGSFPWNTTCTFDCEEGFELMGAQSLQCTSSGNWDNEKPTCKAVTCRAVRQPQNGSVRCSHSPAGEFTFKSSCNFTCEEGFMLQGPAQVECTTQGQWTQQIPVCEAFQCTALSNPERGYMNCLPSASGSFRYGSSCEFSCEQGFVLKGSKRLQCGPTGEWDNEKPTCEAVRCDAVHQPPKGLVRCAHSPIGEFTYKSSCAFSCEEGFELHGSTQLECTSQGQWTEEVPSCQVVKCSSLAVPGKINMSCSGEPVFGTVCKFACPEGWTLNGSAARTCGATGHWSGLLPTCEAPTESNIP
Description: as §1, §2

Measured: binding result

B1: microbubble Variant 1A (gas-filled microvesicles carrying the DSPE-PEG-SH/Variant 1A-SMCC conjugate) (other)
chain: QATEYEYLDYDFLPETEPPEMLRNSTDTTPLTGPGTPESTTVEPAARPHTCPPCPLQQRRGLEAERARLAAQLDALRAEVARLARERDLYGGGGAGGGGKG
modifications: as Variant 1A (pyroglutamate N-terminus, sulfated Tyr 5, 7, 10, O-glycan on Thr16); reacted with Sulfo-SMCC and linked to DSPE-PEG2000-SH, held in the phospholipid envelope of the microvesicle
notes: many copies of the ligand on each microvesicle, so the read-out is multivalent adhesion; also called MB-PSGL-1 Variant 1A; microvesicles with Variant 1A
binds: all assays above
